Assay results: paper PMC10979513 (Progress in neurobiology, 2024)

Target: T1, recombinant μ4 C-terminal domain (human, residues 160–453) (human, UniProt O00189 160-453)
T1 sequence (looked up): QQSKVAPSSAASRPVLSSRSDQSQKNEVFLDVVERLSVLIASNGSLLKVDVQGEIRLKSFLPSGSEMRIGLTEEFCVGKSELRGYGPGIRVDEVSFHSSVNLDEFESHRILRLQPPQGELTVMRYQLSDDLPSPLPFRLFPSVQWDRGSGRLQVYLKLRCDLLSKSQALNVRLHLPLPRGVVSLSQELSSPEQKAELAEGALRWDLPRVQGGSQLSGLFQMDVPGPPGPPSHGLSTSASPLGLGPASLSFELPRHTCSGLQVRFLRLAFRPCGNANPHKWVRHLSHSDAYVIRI
Test: ITC

- Kd: 26.2 µM
Binder: YPAAISSFDR [ApoER2 peptide YPAAISSFDR]
